Experimental data published in patent US20200317768A1 (published 2020).

T1: human FcγRIIaH extracellular domain, C-terminal His-tag (human, UniProt P12318 34-217)
T1 construct: also called human FcγRIIa (type H); FcgRIIaH; not shown: His-tag added to C-terminus
T1 sequence: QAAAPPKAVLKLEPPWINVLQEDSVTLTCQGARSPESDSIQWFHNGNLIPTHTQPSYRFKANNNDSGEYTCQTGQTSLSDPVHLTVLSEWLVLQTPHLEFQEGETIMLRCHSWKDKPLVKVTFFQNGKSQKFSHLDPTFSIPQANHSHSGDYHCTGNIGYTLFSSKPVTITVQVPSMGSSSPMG

T2: human FcγRIIaR extracellular domain, C-terminal His-tag (human, UniProt P12318 34-217)
T2 construct: also called human FcγRIIa (type R); FcgRIIaR; not shown: His-tag added to C-terminus
T2 chain: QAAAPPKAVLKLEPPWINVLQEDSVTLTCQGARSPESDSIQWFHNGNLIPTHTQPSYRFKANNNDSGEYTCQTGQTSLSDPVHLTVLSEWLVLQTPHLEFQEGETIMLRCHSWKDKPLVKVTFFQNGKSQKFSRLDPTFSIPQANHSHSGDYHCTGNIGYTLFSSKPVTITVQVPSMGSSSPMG

T3: cynomolgus monkey FcγRIIa2 extracellular domain, C-terminal His-tag (cynomolgus monkey)
T3 construct: also called cyno FcγRIIa2; cynoFcgRIIa2; not shown: His-tag added to C-terminus
T3 chain: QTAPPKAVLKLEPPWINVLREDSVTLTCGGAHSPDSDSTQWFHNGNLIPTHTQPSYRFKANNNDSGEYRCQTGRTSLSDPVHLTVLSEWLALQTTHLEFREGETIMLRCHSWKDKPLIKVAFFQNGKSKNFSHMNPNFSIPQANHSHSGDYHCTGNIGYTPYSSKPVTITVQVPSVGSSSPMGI

T4: cynomolgus monkey FcγRIIb extracellular domain, C-terminal His-tag (cynomolgus monkey)
T4 construct: also called cyno FcγRIIb; cynoFcγRIIb; not shown: His-tag added to C-terminus
T4 chain: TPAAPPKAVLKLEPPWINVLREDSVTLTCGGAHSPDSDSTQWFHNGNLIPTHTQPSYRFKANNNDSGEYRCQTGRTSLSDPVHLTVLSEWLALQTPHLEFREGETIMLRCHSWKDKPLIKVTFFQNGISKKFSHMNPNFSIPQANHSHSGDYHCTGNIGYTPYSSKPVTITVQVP

T5: cynomolgus monkey FcγRIIa1 extracellular domain, C-terminal His-tag (cynomolgus monkey)
T5 construct: also called cyno FcγRIIa1; cynoFcgRIIa1; not shown: His-tag added to C-terminus
T5 chain: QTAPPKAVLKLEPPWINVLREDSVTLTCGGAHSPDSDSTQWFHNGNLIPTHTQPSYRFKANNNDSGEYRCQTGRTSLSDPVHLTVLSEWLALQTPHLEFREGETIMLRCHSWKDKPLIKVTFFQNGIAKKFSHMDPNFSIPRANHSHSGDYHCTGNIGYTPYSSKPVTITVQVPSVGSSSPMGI

T6: human FcγRIIb extracellular domain, C-terminal His-tag (human, UniProt P31994 43-217)
T6 construct: also called FcgRIIb (human); not shown: His-tag added to C-terminus
T6 sequence: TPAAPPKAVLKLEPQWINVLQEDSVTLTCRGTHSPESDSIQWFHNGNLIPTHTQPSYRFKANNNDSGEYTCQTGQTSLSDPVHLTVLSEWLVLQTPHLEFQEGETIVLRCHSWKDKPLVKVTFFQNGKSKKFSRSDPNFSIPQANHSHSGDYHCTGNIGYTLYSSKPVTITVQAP

B1: M103205H795-MY311/M103202L889-SK1 (antibody, human IgG1, kappa)
heavy: QVTLKESGPVLVKPTETLTLTCTVSGIDLSHDDISWVRQAPGKGLEWVGIISYAGSTYYASWAKGRLTISKDTSKNQVVLTMTNMDPVDTATYYCARGVPAYSHGGDLWGQGTLVTVSSASTKGPSVFPLAPSSKSTSGGTAALGCLVKDYFPEPVTVSWNSGALTSGVHTFPAVLQSSGLYSLSSVVTVPSSSLGTQTYICNVNHKPSNTKVDKKVEPKSCDKTHTCPPCPAPELLTGPSVFLFPPKPKDTLMISRTPEVTCVVVDVSEEDPEVKFNWYVDGVEVHNAKTKPREELYNSTYRVVSVLTVLHQDWLNGKEYKCKVSNKALPKPIEKTISKAKGQPREPQVYTLPPSREEMTKNQVSLTCLVKGFYPSDIAVEWESNGQPENNYKTTPPVLDSDGSFFLYSKLTVDKSRWQQGNVFSCSVMHEALHNHYTQKSLSLSP
light: DIVMTQSPATLSLSPGERATLSCTSSQSVYHANWLSWFQQKPGQPPKLLIYWASTLAYGVPSRFSGSGSGTDFTLTISSLQPEDAATYYCAGGYGGGRYAFGQGTKVEIKRTVAAPSVFIFPPSDEQLKSGTASVVCLLNNFYPREAKVQWKVDNALQSGNSQESVTEQDSKDSTYSLSSTLTLSKADYEKHKVYACEVTHQGLSSPVTKSFNRGEC
B2: M103205H795-MY318/M103202L889-SK1 (antibody, human IgG1, kappa)
heavy: QVTLKESGPVLVKPTETLTLTCTVSGIDLSHDDISWVRQAPGKGLEWVGIISYAGSTYYASWAKGRLTISKDTSKNQVVLTMTNMDPVDTATYYCARGVPAYSHGGDLWGQGTLVTVSSASTKGPSVFPLAPSSKSTSGGTAALGCLVKDYFPEPVTVSWNSGALTSGVHTFPAVLQSSGLYSLSSVVTVPSSSLGTQTYICNVNHKPSNTKVDKKVEPKSCDKTHTCPPCPAPELLLGPSVFLFPPKPKDTLMISRTPEVTCVVVDVSEEDPEVKFNWYVDGVEVHNAKTKPREEQYNSTYRVVSVLTVLHQDWLNGKEYKCKVSNTALPKPIEKTISKAKGQPREPQVYTLPPSREEMTKNQVSLTCLVKGFYPSDIAVEWESNGQPENNYKTTPMVLDSDGSFFLYSKLTVDKSRWQQGNVFSCSVMHEALHNHYTQKSLSLSP
light: DIVMTQSPATLSLSPGERATLSCTSSQSVYHANWLSWFQQKPGQPPKLLIYWASTLAYGVPSRFSGSGSGTDFTLTISSLQPEDAATYYCAGGYGGGRYAFGQGTKVEIKRTVAAPSVFIFPPSDEQLKSGTASVVCLLNNFYPREAKVQWKVDNALQSGNSQESVTEQDSKDSTYSLSSTLTLSKADYEKHKVYACEVTHQGLSSPVTKSFNRGEC
B3: M103205H795-MY312/M103202L889-SK1 (antibody, human IgG1, kappa)
heavy: QVTLKESGPVLVKPTETLTLTCTVSGIDLSHDDISWVRQAPGKGLEWVGIISYAGSTYYASWAKGRLTISKDTSKNQVVLTMTNMDPVDTATYYCARGVPAYSHGGDLWGQGTLVTVSSASTKGPSVFPLAPSSKSTSGGTAALGCLVKDYFPEPVTVSWNSGALTSGVHTFPAVLQSSGLYSLSSVVTVPSSSLGTQTYICNVNHKPSNTKVDKKVEPKSCDKTHTCPPCPAPELLTGPSVFLFPPKPKDTLMISRTPEVTCVVVDVSEEDPEVKFNWYVDGVEVHNAKTKPREEQYNSTYRVVSVLTVLHQDWLNGKEYKCKVSNTALPKPIEKTISKAKGQPREPQVYTLPPSREEMTKNQVSLTCLVKGFYPSDIAVEWESNGQPENNYKTTPMVLDSDGSFFLYSKLTVDKSRWQQGNVFSCSVMHEALHNHYTQKSLSLSP
light: DIVMTQSPATLSLSPGERATLSCTSSQSVYHANWLSWFQQKPGQPPKLLIYWASTLAYGVPSRFSGSGSGTDFTLTISSLQPEDAATYYCAGGYGGGRYAFGQGTKVEIKRTVAAPSVFIFPPSDEQLKSGTASVVCLLNNFYPREAKVQWKVDNALQSGNSQESVTEQDSKDSTYSLSSTLTLSKADYEKHKVYACEVTHQGLSSPVTKSFNRGEC
B4: M103205H795-MY321/M103202L889-SK1 (antibody, human IgG1, kappa)
heavy: QVTLKESGPVLVKPTETLTLTCTVSGIDLSHDDISWVRQAPGKGLEWVGIISYAGSTYYASWAKGRLTISKDTSKNQVVLTMTNMDPVDTATYYCARGVPAYSHGGDLWGQGTLVTVSSASTKGPSVFPLAPSSKSTSGGTAALGCLVKDYFPEPVTVSWNSGALTSGVHTFPAVLQSSGLYSLSSVVTVPSSSLGTQTYICNVNHKPSNTKVDKKVEPKSCDKTHTCPPCPAPELLHGPSVFLFPPKPKDTLMISRTPEVTCVVVDVSDEDPEVKFNWYVDGVEVHNAKTKPREEQYNSTYRVVSVLTVLHQDWLNGKEYKCKVSNKALPKPIEKTISKAKGQPREPQVYTLPPSREEMTKNQVSLTCLVKGFYPSDIAVEWESNGQPENNYKTTPMVLDSDGSFFLYSKLTVDKSRWQQGNVFSCSVMHEALHNHYTQKSLSLSP
light: DIVMTQSPATLSLSPGERATLSCTSSQSVYHANWLSWFQQKPGQPPKLLIYWASTLAYGVPSRFSGSGSGTDFTLTISSLQPEDAATYYCAGGYGGGRYAFGQGTKVEIKRTVAAPSVFIFPPSDEQLKSGTASVVCLLNNFYPREAKVQWKVDNALQSGNSQESVTEQDSKDSTYSLSSTLTLSKADYEKHKVYACEVTHQGLSSPVTKSFNRGEC

Legend:
Assay in all cases: SPR (Biacore), KD of SG1 / KD of variant;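 further: relative to parent M103205H795-SG1 carrying the SG1 human heavy chain constant region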
[1] = target: T7, cynomolgus monkey FcγRIIIaS extracellular domain, C-terminal His-tag (cynomolgus monkey, UniProt A3RFZ7 21-206 (rhesus entry))
T7 construct: also called cyno FcγRIIIaS; cynoFcγRIIIaS; not shown: His-tag added to C-terminus
T7 sequence (A3RFZ7 21-206): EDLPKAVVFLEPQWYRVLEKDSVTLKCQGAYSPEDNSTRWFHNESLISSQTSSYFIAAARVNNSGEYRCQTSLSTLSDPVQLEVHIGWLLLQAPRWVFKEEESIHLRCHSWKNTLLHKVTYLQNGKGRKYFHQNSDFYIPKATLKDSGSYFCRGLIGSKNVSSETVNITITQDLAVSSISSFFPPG

[2] = target: T8, human FcγRIIIaV extracellular domain, C-terminal His-tag (human, UniProt P08637 17-208)
T8 construct: also called FcgRIIIaV; not shown: His-tag added to C-terminus
T8 sequence (P08637 17-208 F176V): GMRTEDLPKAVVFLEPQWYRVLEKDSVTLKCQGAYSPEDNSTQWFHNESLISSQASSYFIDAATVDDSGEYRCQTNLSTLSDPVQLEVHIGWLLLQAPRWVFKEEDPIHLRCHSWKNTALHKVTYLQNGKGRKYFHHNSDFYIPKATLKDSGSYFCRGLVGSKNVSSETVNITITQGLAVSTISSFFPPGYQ

[3] = target: T1, human FcγRIIaH extracellular domain, …
[4] = target: T2, human FcγRIIaR extracellular domain, …
[5] = target: T3, cynomolgus monkey FcγRIIa2 …
[6] = target: T4, cynomolgus monkey FcγRIIb extracellular …
[7] = target: T5, cynomolgus monkey FcγRIIa1 …
[8] = target: T6, human FcγRIIb extracellular domain, …

Binder | KD fold (SG1 = 1) [1] | KD fold (SG1 = 1) [2] | KD fold (SG1 = 1) [3] | KD fold (SG1 = 1) [4] | KD fold (SG1 = 1) [5] | KD fold (SG1 = 1) [6] | KD fold (SG1 = 1) [7] | KD fold (SG1 = 1) [8]
B1 | 0.35 fold | 0.11 fold | 3.5 fold | 2.4 fold | 1.5 fold | 2.3 fold | 1.4 fold | 2.2 fold
B2 | 0.24 fold | 0.05 fold | 0.6 fold | 0.8 fold | 0.7 fold | 0.8 fold | 0.4 fold | 1 fold
B3 | 0.55 fold | 0.29 fold | 6.3 fold | 6.5 fold | 3.4 fold | 4.5 fold | 2.3 fold | 4.2 fold
B4 | 0.33 fold | 0.74 fold | 3.7 fold | 2.9 fold | 2.3 fold | 2.8 fold | 1.4 fold | 1.8 fold
